Results: patent US20240141007A1
Values joined by “and” are separate entries in the source; they are usually repeats but may differ in a detail not shown here. Equal entries are not always repeated.

Columns and labels:
UCM23 = assay: cell-based or functional assay
UCM22 = assay: cell-based or functional assay

- Est. kcat/KM (cleavage efficiency) (UCM23): 2000 M^-1S^-1 and 2100 M^-1S^-1
- Est. kcat/KM (cleavage efficiency) (UCM22): 1800 M^-1S^-1 and 2100 M^-1S^-1
B1: MMP-7 (enzyme, UniProt P09237 95-267, looked up)
chain: YSLFPNSPKWTSKVVTYRIVSYTRDLPHITVDRLVSKALNMWGKEIPLHFRKVVWGTADIMIGFARGAHGDSYPFDGPGNTLAHAFAPGTGLGGDAHFDEDERWTDGSSLGINFLYAATHELGHSLGMGHSSDPNAVMYPTYGNGDPQNFKLSQDDIKGIQKLYGKRSNSRKK
